Experimental data from US20100041597A1 (published 2010).

T1: PKC-ε (purified isoform) (Homo sapiens (Human), UniProt Q02156 1-737)
T1 construct: also called PKC-epsilon; PKCepsilon
T1 sequence: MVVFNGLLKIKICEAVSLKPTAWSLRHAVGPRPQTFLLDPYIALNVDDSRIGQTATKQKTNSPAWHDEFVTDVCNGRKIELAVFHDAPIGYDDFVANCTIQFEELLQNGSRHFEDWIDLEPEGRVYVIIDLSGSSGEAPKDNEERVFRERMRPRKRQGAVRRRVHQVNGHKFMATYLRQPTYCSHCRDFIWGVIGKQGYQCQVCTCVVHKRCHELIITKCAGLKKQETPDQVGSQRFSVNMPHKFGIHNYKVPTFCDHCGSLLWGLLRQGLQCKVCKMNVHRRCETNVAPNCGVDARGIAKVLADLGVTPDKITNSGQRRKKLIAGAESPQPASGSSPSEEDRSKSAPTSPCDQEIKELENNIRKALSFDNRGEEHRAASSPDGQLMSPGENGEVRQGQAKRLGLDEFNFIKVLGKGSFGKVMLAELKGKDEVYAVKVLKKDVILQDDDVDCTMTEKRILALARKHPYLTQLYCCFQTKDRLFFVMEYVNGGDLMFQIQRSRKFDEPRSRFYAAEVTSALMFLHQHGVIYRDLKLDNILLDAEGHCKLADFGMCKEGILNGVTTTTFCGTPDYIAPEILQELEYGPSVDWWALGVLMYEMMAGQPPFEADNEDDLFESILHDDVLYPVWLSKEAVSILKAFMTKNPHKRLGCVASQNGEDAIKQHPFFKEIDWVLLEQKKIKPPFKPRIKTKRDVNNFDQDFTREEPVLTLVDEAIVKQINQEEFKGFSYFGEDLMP

T2: PKC-ι (endogenous, human cell extracts) (human, UniProt P41743 2-596)
T2 construct: also called PKC-iota
T2 sequence (looked up): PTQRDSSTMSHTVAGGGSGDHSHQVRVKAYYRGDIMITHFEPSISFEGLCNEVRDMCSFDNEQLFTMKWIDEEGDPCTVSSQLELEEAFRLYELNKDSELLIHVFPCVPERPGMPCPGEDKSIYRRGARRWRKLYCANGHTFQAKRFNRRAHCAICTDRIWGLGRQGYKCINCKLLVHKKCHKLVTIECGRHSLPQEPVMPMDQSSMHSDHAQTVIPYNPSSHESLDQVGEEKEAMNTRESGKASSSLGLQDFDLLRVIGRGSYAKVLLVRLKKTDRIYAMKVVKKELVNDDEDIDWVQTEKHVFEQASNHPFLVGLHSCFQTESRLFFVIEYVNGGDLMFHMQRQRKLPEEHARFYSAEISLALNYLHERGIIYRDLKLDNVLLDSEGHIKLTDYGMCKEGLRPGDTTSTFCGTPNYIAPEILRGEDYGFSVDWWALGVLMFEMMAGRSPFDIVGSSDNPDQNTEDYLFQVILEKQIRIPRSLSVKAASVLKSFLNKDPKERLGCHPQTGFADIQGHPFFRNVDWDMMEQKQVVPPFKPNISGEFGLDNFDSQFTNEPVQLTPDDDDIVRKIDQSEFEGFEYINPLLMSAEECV


Legend:
[1] = target: T3, PKC-α (purified isoform) (Homo sapiens (Human), UniProt P17252 2-672); assay: competitive ELISA on purified PKC-α vs anti-PKC-α Ab; PRE 50 µM
T3 construct: also called PKC-alpha; PKCalpha
Experimental: (§1) Greiner 96 well ELISA plates were coated with the appropriate PKC isoform diluted in PBSN (PBS with Calcium/Magnesium+0.05% Sodium azide w/w). 50 μL/well at 250 ng/mL was used. Control wells contained PBSN only. Plates were incubated overnight at 4° C.
(§2) The plates were washed 3 times with 200 μL of dH₂O per well, then 100 μL of blocking solution was added per well and the plate incubated for 1 h at 37° C. The washing steps with dH₂O were repeated and 50 μL of the appropriate PRE solution (PRE stock solution [20 mM in DMSO] diluted in PBSN) was added and the plate incubated for 1 h at room temperature.
(§3) 50 μL of 1:1000 dilution of Alkaline Phosphatase (AP) conjugated antibody (anti-rabbit for all except zeta, which was anti-goat) was then added and the plate incubated for 1 h at room temperature. Washing with dH₂O was then repeated. Finally, 100 μL of pNPP solution in pNPP buffer (2 mM MgCl₂, 100 mM Sodium bicarbonate in water, pH 9.8) was added to all wells and incubated for 8 minutes for α, βI, βII ε, and ζ, or for 15-20 mins for […] (until sufficient coloration is observed). The reaction was stopped by addition of Stop solution (2N NaOH) and the absorbance at 405 nm was read on a Galaxy Plate reader.

[2] = target: T1, PKC-ε (purified isoform); assay: competitive ELISA on purified PKC-ε vs anti-PKC-ε Ab; PRE 200 µM
Experimental: as §1, §2, §3

[3] = target: T2, PKC-ι (endogenous, human cell extracts); assay: Western-blot competition on cell extracts against the anti-PKC-ι primary antibody; band densitometry
Experimental: (§4) Binding efficiency and specificity of the peptides PRE 2, 3, 4, 5, 6, 7, 8, 9, 10, 11, 12 and 13 (see Table 3) was also tested using cytoplasmic extracts from different cell lines expressing appropriate PKC isoforms as described for Example 1. Briefly, the protein cytoplasmic extracts were separated by electrophoresis and transferred onto nitrocellulose membranes by standard Western blotting procedures. The bands on the Western blots were detected with matching primary antibodies and alkaline phosphatase conjugated secondary antibody. The bands were then scanned and the relative density measurements obtained.
(§5) This procedure to assess the binding characteristics of the PREs is based on competition binding of the PRE with the primary anti-isoform PKC specific antibodies. The lower the measured band density, the greater the binding of the PRE to the PKC isoform. The PREs were added at 10 and 20 times (10×, 20×) the primary antibody concentration, according to classical competition between antigenic peptide and primary antibody. The following cell lines (obtained from the ATCC) were used: H661—NCI human lung carcinoma NSCLC; MDAMB231—human highly invasive breast cancer cell line from pleural effusion; LS180—human colon adenocarcinoma; LnCAP—human prostate adenocarcinoma; CCD16Lu—human lung fibroblasts; Du145—human prostate carcinoma brain metastasis, and T24—human bladder carcinoma.

[4] = target: T4, PKC-βII (purified isoform) (Homo sapiens (Human), UniProt P05771 2-621); assay: competitive ELISA on purified PKC-βII vs anti-PKC-βII Ab; PRE 50 µM
T4 construct: also called PKC-beta II
Experimental: as §1, §2, §3

[5] = target: T2, PKC-ι (endogenous, human cell extracts); assay: Western-blot competition on cell extracts against the anti-PKC-ι primary antibody; peptide at 10X and 20X the antibody concentration; band densitometry (lower band = peptide bound)
Experimental: as §4, §5

T4 sequence (P05771 other isoform, or with tags, fused parts or gaps limits assumed): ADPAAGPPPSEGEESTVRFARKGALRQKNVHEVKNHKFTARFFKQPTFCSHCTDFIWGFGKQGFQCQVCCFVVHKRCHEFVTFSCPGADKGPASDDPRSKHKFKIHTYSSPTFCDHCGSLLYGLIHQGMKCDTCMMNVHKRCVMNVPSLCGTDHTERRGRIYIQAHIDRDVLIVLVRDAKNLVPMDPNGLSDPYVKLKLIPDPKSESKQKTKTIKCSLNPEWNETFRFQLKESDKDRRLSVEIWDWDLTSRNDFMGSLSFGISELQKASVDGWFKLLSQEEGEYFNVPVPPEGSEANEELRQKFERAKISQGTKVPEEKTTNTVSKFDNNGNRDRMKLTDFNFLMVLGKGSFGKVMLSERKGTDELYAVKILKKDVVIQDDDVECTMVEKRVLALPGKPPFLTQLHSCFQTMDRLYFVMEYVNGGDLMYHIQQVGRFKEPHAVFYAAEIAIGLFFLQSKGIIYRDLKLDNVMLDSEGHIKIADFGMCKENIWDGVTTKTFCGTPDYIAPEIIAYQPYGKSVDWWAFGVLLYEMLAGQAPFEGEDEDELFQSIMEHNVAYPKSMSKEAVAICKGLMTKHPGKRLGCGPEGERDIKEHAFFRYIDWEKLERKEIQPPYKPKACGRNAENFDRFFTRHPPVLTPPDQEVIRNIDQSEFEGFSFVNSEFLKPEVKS

Binder | binding capacity (%) [1] [%] | binding capacity (%) [2] [%] | binding capacity (%) [4] [%] | binding result [5] | binding result [3]
Ac-KDAQNLI-NH2 (Synthetic peptide; also called peptide PRE 12; Ac-KDAQNLI-NH2) [PRE 12] | 3.29 | 0 |  |  | 
Ac-AKGIQEVKGGDAQNLIGISI-NH2 (Synthetic peptide; also called peptide PRE 3) [PRE 3] | 17.5 | 31 |  | binds | 
Ac-KDAQNLIGISI-NH2 (Synthetic peptide; also called peptide PRE 4) [PRE 4] | 6.46 |  | 2.69 | binds | 
Ac-RDAQNLIGISI-NH2 (Synthetic peptide; also called peptide PRE 11) [PRE 11] | 0 | 9.84 |  |  | 
Ac-KDANQLIGISI-NH2 (Synthetic peptide; also called peptide PRE 6) [PRE 6] |  |  | 0.08 |  | no binding (tested: 20X the primary antibody concentration)

Now from value to binder, other results behind:

binding capacity (%) [1] [%] | binding capacity (%) [2] [%] | binding capacity (%) [4] [%] | binding result [5] | Binder | binding result [3]
 | 0.85 | 0 |  | Ac-RDAQNLI-NH2 (Synthetic peptide; also called peptide PRE 13; Ac-RDAQNLI-NH2) [PRE 13] | no binding (tested: 20X the primary antibody concentration)
0 | 3.78 |  |  | Ac-ISIGILQNADK-NH2 (Synthetic peptide (retro form of PRE 4); also called peptide PRE 7) [PRE 7] | no binding (tested: 20X the primary antibody concentration)
